Publication PMC2288786 (BMC Structural Biology, 2008)

How the values were obtained:
Details in all cases: both partners purified
[1] = target: T1, calmodulin (recombinant, from the expression construct pETCM with vertebrate CaM cDNA) ( (vertebrate CaM cDNA), UniProt P0DP23 2-149); experiment: small-angle X-ray scattering (SAXS); CaM in solution with and without a 5-fold molar excess of the peptide, 5.4 to 140.0 mg/ml; X33 beamline, DESY
[2] = target: T1, calmodulin (recombinant, from the …); experiment: ITC; 1.0 mM MBP peptide injected into 0.10 mM CaM; 50 mM HEPES pH 7.5, 20 mM CaCl2; +30°C; fits: one site (peaks 2-7) and 4 sequential sites (peaks 2-20)
[3] = target: T1, calmodulin (recombinant, from the …); experiment: ITC; 1.0 mM MBP peptide injected into 0.10 mM CaM; 50 mM HEPES pH 7.5, 20 mM CaCl2; +35°C; fits: one site (peaks 2-7) and 4 sequential sites (peaks 2-20)
[4] = target: T1, calmodulin (recombinant, from the …); experiment: ITC; 1.0 mM MBP peptide injected into 0.10 mM CaM; 50 mM HEPES pH 7.5, 20 mM CaCl2; +25°C; fits: one site (peaks 2-7) and 4 sequential sites (peaks 2-20)
[5] = target: T1, calmodulin (recombinant, from the …); experiment: SPR; Biacore 3000; CaM immobilised by amine coupling (4000 RU); peptide 2.5-200 μM injected; 10 mM HEPES pH 7.5, 150 mM NaCl, 4 mM CaCl2, 0.005% P-20; 30 μl/min; two-state conformational change model; also 2-site model on equilibrium RU
[6] = target: T1, calmodulin (recombinant, from the …); experiment: ITC; 1.0 mM MBP peptide injected into 0.10 mM CaM; 50 mM HEPES pH 7.5, 20 mM CaCl2; +40°C; fits: one site (peaks 2-7) and 4 sequential sites (peaks 2-20)

B1: MBP peptide HKGFKGVDAQGTLSKIFKL, residues 138-156 of the human MBP 18.5 kDa isoform (peptide)
peptide: HKGFKGVDAQGTLSKIFKL
notes: myelin basic protein, human, 18.5-kDa isoform, residues 138-156; also called the peptide; myelin peptide; source: synthetic peptide, 95% purity; bought: Genemed Synthesis
In the case of B1, the “stoichiometry N” value [1] is reported as 1, the Kd [2] is reported as 2.3 µM and the “Kd of the first binding event (4-site model)” value (from here on “Kd of the first binding event”) [2] is reported as 1.1 µM. The dH [2] was -2.11 ± 0.06 kcal/mol, the “dH of the first binding event (4-site model)” value (“dH of the first binding event” below) [2] was -2.07 ± 0.02 kcal/mol and the “stoichiometry N” value [2] was 0.67 ± 0.02. The Kd [3] was 1.9 µM, the “Kd of the first binding event” value [3] was 1 µM and the dH [3] was -2.38 ± 0.1 kcal/mol. For the same binder, the “dH of the first binding event” value [3] was -2.34 ± 0.03 kcal/mol, the “stoichiometry N” value [3] was 0.63 ± 0.02 and the Kd [4] was 3.4 µM. For the same binder, the “Kd of the first binding event” value [4] was 1 µM, the dH [4] was -1.47 ± 0.13 kcal/mol and the “dH of the first binding event” value [4] was -1.44 ± 0.04 kcal/mol. The “stoichiometry N” value [4] was 0.83 ± 0.23, the Kd [5] was 58 µM and the “Kd of the high-affinity binding event (2-site model, equilibrium RU)” value [5] was ~10 µM. For the same binder, the “Kd of the low-affinity binding event (2-site model, equilibrium RU)” value [5] was ~1000 µM, the Kd [6] was 25.9 µM and the “Kd of the first binding event” value [6] was 1.7 µM. For the same binder, the dH [6] was -1.09 ± 0.97 kcal/mol, the “dH of the first binding event” value [6] was -0.73 ± 0.05 kcal/mol and the “stoichiometry N” value [6] was 0.7 ± 0.17.
